Sequences and labels used below:
T1: Fc fusion protein of the RBD-SD1 region of MERS-CoV (MERS-CoV, UniProt K9N5Q8 367-655)
T1 sequence: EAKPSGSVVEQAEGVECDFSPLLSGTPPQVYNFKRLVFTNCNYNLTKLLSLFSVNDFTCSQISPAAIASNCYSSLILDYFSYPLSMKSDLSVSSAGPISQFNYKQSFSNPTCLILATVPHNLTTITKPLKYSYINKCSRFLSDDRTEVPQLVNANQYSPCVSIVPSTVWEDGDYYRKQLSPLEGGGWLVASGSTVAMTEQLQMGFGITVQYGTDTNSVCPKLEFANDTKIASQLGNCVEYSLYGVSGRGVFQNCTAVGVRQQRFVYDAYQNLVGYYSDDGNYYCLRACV

T2: Fc fusion protein of the RBD-SD1 region of HCoV-OC43 (HCoV-OC43, UniProt P36334 318-675)
T2 construct: domain: RBD-SD1 region
T2 sequence: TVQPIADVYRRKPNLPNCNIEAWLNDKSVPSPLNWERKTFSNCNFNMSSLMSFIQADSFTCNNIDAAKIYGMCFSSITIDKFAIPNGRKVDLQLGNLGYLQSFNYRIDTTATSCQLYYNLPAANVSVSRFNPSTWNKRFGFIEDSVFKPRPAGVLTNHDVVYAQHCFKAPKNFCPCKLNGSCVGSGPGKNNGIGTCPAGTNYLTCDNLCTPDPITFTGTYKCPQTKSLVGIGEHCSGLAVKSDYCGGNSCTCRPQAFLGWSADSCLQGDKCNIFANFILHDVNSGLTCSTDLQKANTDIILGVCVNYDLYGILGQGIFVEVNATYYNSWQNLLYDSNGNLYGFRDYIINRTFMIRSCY

T3: Fc fusion protein of the RBD-SD1 region of HCoV-HKU1 (HCoV-HKU1, UniProt Q5MQD0 310-677)
T3 construct: domain: RBD-SD1 region
T3 sequence: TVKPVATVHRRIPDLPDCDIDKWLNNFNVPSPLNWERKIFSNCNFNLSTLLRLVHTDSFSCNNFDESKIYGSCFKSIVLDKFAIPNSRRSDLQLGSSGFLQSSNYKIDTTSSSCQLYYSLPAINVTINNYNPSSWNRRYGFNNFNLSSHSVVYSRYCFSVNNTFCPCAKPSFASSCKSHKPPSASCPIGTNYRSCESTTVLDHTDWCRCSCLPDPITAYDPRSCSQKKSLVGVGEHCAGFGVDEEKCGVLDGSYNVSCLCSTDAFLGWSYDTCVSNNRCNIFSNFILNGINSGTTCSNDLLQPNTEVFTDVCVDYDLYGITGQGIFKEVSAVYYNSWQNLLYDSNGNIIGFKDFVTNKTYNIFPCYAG

B1: HK CV38-139 (antibody, V domains shown)
VH: EVQLVESGGGLVQPGGSLRLSCAASGFTVSSNYMSWVRQAPGKGLEWVSVFYSGGSTFYADSVKGRFTISRDNSKNTLYLQMNSLRAEDTAVYYCARGHYDLFDYWGQGTLVTVSS
VL: DIQLTQSPSFLSASVGDRVTITCRASQGISSYLAWYQQKPGKAPKLLIYAASTLQSGVPSRFSGSGSGTEFTLTISSLQPEDFATYYCQQLNSYPPGTFGPGTKVDIKR
B2: HK CV07-209 (antibody, V domains shown)
VH: QVQLVESGGGLVKPGGSLRLSCAASGFTFSDYYMSWIRQAPGKGLEWVSYISSSVSTIYYADSVKGRFTISRDNAKNSLYLQMNSLRAEDTAVYYCARDGVIPPRFDYWGQGTLVTVSS
VL: not shown
B3: HL CV07-270 (antibody, V domains shown)
VH: QVQLVESGGGLVKPGGSLRLSCAASGFTFSDYYMTWIRQAPGKGLEWVSYISSSGSTIYYADSVKGRFTISRDNAKNSLYLQMNSLRAEDTAVYYCARARGSSGWYRIGTRWGNWFDPWGQGTLVTVSS
VL: QSALTQPASVSGSPGQSITISCTGTSSDVGGYNYVSWYQQHPGKAPKLMIYEVSNRPSGVSNRFSGSKSGNTASLTISGLQAEDEADYYCSSYTSSSNVVFGGGTMLTVLG
B4: HL CV07-222 (antibody, V domains shown)
VH: QVQLVQSGAEVKKPGASVKVSCKASGYTFTDYYVHWVRQAPGQGLEWMGWINPISGGTNYAQKFQGRVTMTRDTSISTAYMELSRLRSDDTAVYYCARGPYYYDSSGSLGAFDIWGQGTMVTVSS
VL: QSALTQPASVSGSPGQSITISCTGTSSDVGSYNLVSWYQQHPGKAPKLMIYEGSKRPSGVSNRFSGSKSGNTASLTISGLQAEDEAHYYCCSYAGGSTSYVFGTGTKVTVLG
B5: HK CVX2-106 (antibody, V domains shown)
VH: QVQLVQSGAEVKKPGSSVKVSCKASGGTFSSYAISWVRQAPGQGLEWMGGIIPIFGTANYAQKFQGRVTITADESTSTAYMELSSLRSEDTAVYYCATRKETTVTTSLVYGMDVWGQGTTVTVSS
VL: not shown
B6: HK CVX1-126 (antibody, V domains shown)
VH: EVQLVESGGGLVQPGGSLRLSCAASGLTVSSNYMSWVRQAPGKGLEWVSVIYSGGSTYYADSVKGRFTISRHNSKNTLYLQMNSVRAEDTAVYYCARDLSEGGMDVWGQGTTVTVSS
VL: DIQMTQSPSSVSASVGDRVTITCRASQGISSWLAWYQQKPGKAPKLLIYAASTLQSGVPSRFSGSGSGTDFTLTISSLQPEDFATYYCQQANGFPPLFGGGTKVEIKR
B7: HK CV38-221 (antibody, V domains shown)
VH: EVQLVESGGGLVQPGGSLRLSCAASGITVSSNYMIWVRQAPGKGLEWVSVIYSGGSTYYADSVKGRFTISRDNSKNTLYLQMNSLRAEDTAVYYCARGFGDYYFDYWGQGTLVTVSS
VL: EIVLTQSPGTLSLSPGERATLSCRASQSVSSSYFAWYQQKPGQAPRLLIYGASSRATGIPDRFSGSGSGTDFTLTISRLEPEDFAVYYCQQLYTFGQGTKLEIKR
B8: HL CV07-262 (antibody, V domains shown)
VH: QVQLVQSGAEVKKPGASVKVSCKASGYTFTGYYMHWVRQAPGQGLEWMGWINPNSGGTNYAQTFQGRVTMTRDTSITTTYMELSRLRSDDTAVYYCARVGWYDFGTPGDYYYYYGMDVWGQGTTVTVSS
VL: QSALTQPASVSGSPGQSITISCTGTSSDVGSYNLVSWYQQHPGKAPKLMIYEGSKRPSGVSNRFSGSKSGNTASLTISGLQAEDEADYFCCSYAGTSTFVFGTGTKVTVLG
B9: HL CV07-255 (antibody, V domains shown)
VH: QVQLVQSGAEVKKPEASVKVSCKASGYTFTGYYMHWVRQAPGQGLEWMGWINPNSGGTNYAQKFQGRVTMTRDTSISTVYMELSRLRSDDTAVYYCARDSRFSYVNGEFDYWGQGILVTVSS
VL: B8 VL with G24R, G30E, G53V, V60I, F89Y, T96H, F99W, T103G, K106E, V107L
B10: HL CV07-267 (antibody, V domains shown)
VH: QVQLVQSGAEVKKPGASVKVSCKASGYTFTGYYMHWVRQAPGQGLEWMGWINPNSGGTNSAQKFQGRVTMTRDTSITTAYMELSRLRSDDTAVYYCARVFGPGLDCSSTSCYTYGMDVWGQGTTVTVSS
VL: B8 VL with G53V, F89Y, T96S, T98S, F99W, T103G, V107L

Broadly, the Kd is the equilibrium constant for the complex coming apart.

Changes are numbered by the printed parent chain.

The target of one test is T4, Spike protein of authentic SARS-CoV-2 (Munich isolate 984) (SARS-CoV-2, UniProt P0DTC2 14-1273). The test can be described thus: cell-based or functional assay.
Regarding B1, the “IC50 (PRNT, authentic SARS-CoV-2)” value came to 0.0732 µg/mL.
For the molecule B2, the “IC50 (PRNT, authentic SARS-CoV-2)” value is 0.0031 µg/mL.
In the case of B3, the “IC50 (PRNT, authentic SARS-CoV-2)” value came to 0.0823 µg/mL.
On the same count and under the same terms, in the case of B4 it was 0.0078 µg/mL.
Still for that read-out and setting: in the case of B5 it was 0.0176 µg/mL; in that of B6, 0.0717 µg/mL.
On the same count and under the same terms, the same measure for B7: 0.173 µg/mL; for B8: 0.0071 µg/mL; for B9: 0.0145 µg/mL.

In another test the target is beta-2 microglobulin (Homo sapiens (Human), UniProt P61769 21-119). The test can be described thus: routine laboratory ELISA.
Sequence of beta-2 microglobulin (P61769 21-119 limits assumed): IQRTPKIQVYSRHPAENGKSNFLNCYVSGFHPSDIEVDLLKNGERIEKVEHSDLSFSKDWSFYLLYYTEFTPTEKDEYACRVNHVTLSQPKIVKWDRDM
As to B1, the binding result is given as “no binding (tested: 50 µg/ml)”.
Still for that read-out and setting: the same measure for B2: “no binding (tested: 50 µg/ml)”.
For the molecule B3, the binding result is “no binding (tested: 50 µg/ml)”.
On the same count and under the same terms, in the case of B4 it was “no binding (tested: 50 µg/ml)”.
The same measure, in the same setting: in the case of B5 it was “no binding (tested: 50 µg/ml)”; in that of B6, “no binding (tested: 50 µg/ml)”; in that of B7, “no binding (tested: 50 µg/ml)”.
The same measure, in the same setting: the same measure for B8: “no binding (tested: 50 µg/ml)”; for B9: “no binding (tested: 50 µg/ml)”.

A further test has as its target T4, Spike protein of authentic SARS-CoV-2 …. The test can be described thus: cell-based or functional assay. Also on record: IC90 Neutralizing Assay: unit not given beside the values. The source holds these as a separate data set.
With B2, the “IC50 Neutralizing Assay” value was less than 0.05 µg/mL.
Regarding B3, the “IC90 Neutralizing Assay” value was roughly 500.
For B4, the “IC50 Neutralizing Assay” value is less than 0.05 µg/mL.
Consider B5, for which the “IC50 Neutralizing Assay” value is roughly 0.5 µg/mL.
Consider B8, for which the “IC50 Neutralizing Assay” value was less than 0.05 µg/mL and the “IC90 Neutralizing Assay” value was roughly 500.
Take B10: the “IC50 Neutralizing Assay” value was roughly 500.
Consider B9, for which the “IC50 Neutralizing Assay” value was roughly 0.05 µg/mL.

For a further test, the target named is T1, Fc fusion protein of the RBD-SD1 region …. Briefly: ELISA on captured RBD-SD1-Fc. Background: An ELISA detects its analyte on a solid surface through an enzyme-linked reagent.
For B1, the binding result was “no binding (tested: 1 µg/ml)”.
As to B2, the binding result is “no binding (tested: 1 µg/ml)”.
Still for that read-out and setting: the same measure for B3: “no binding (tested: 1 µg/ml)”; for B4: “no binding (tested: 1 µg/ml)”; for B5: “no binding (tested: 1 µg/ml)”.
The same measure, in the same setting: the same measure for B6: “no binding (tested: 1 µg/ml)”.
B7: the binding result was “no binding (tested: 1 µg/ml)”.
On the same count and under the same terms, the same measure for B8: “no binding (tested: 1 µg/ml)”; for B9: “no binding (tested: 1 µg/ml)”.

A further test deals with Fc fusion protein of the RBD-SD1 region of SARS-CoV (SARS-CoV, UniProt P59594 306-577). The test can be described thus: ELISA on captured RBD-SD1-Fc.
Turning to B1, the binding result was “no binding (tested: 1 µg/ml)”.
On the same count and under the same terms, in the case of B2 it was “no binding (tested: 1 µg/ml)”.
The same measure, in the same setting: the same measure for B3: “no binding (tested: 1 µg/ml)”; for B4: “no binding (tested: 1 µg/ml)”.
The same measure, in the same setting: in the case of B5 it was “no binding (tested: 1 µg/ml)”; in that of B6, “no binding (tested: 1 µg/ml)”; in that of B7, “no binding (tested: 1 µg/ml)”.
B8: the binding result was “no binding (tested: 1 µg/ml)”.
Same read-out and setting: in the case of B9 it was “no binding (tested: 1 µg/ml)”.

Another test has as its target T2, Fc fusion protein of the RBD-SD1 region …. Briefly: ELISA on captured RBD-SD1-Fc.
Consider B1, for which the binding result was “no binding (tested: 1 µg/ml)”.
On the same count and under the same terms, the same measure for B2: “no binding (tested: 1 µg/ml)”; for B3: “no binding (tested: 1 µg/ml)”.
Still for that read-out and setting: in the case of B4 it was “no binding (tested: 1 µg/ml)”; in that of B5, “no binding (tested: 1 µg/ml)”; in that of B6, “no binding (tested: 1 µg/ml)”.
Same read-out and setting: in the case of B7 it was “no binding (tested: 1 µg/ml)”; in that of B8, “no binding (tested: 1 µg/ml)”.
As to B9, the binding result is recorded as “no binding (tested: 1 µg/ml)”.

The next test concerns the target T3, Fc fusion protein of the RBD-SD1 region …. The test can be described thus: ELISA on captured RBD-SD1-Fc.
On to B1, for which the binding result was “no binding (tested: 1 µg/ml)”.
On the same count and under the same terms, the same measure for B2: “no binding (tested: 1 µg/ml)”; for B3: “no binding (tested: 1 µg/ml)”; for B4: “no binding (tested: 1 µg/ml)”.
Same read-out and setting: in the case of B5 it was “no binding (tested: 1 µg/ml)”.
B6: the binding result was “no binding (tested: 1 µg/ml)”.
Still for that read-out and setting: the same measure for B7: “no binding (tested: 1 µg/ml)”; for B8: “no binding (tested: 1 µg/ml)”.
For the molecule B9, the binding result is reported as “no binding (tested: 1 µg/ml)”.

For the next test, the target named is SARS-CoV-2 S protein-RBD-mFc (SARS-CoV-2, UniProt P0DTC2 319-537).
Test: not given
With B1, the Kd was 0.277 nM.
Same read-out and setting: in the case of B2 it was 0.006 nM; in that of B4, 0.00697 nM.
As to B6, the Kd worked out at 0.243 nM.
Turning to B7, the Kd was determined as 0.499 nM.
In the case of B8, the Kd was determined as 0.079 nM.

(Values after patent publication US20240376180A1 (DEUTSCHES ZENTRUM FUR NEURODEGENERATIVE ERKRANKUNGEN E V …, published 2024).)
